System: 75 aa long oligopeptide with the correct sequence of amino acids 351-399 of the α2 subunit of the GABAA receptor

recombinant p42 MAP Kinase (Erk2) (New England Biolabs), sequence (P28482 2-360): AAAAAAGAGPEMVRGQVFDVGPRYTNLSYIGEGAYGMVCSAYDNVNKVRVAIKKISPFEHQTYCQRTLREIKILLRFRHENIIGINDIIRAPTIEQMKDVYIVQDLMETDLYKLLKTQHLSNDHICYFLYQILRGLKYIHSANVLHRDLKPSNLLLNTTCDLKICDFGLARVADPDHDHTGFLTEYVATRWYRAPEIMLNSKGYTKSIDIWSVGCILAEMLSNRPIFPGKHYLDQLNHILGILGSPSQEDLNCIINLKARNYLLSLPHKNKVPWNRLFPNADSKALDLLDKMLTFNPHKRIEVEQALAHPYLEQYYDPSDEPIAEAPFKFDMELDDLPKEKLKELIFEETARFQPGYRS

Substance: recombinant p42 MAP Kinase (Erk2) (New England Biolabs)
- average share of total phosphorylation at each of the other nine Ser/Thr residues (in vitro kinase assay, ^32P incorporation): the other nine Ser/Thr residues are phosphorylated at an average of 4% each
- incorporation of ^32P as a readout of phosphorylation (in vitro kinase assay): the construct with the wildtype sequence shows a much higher incorporation of ^32P than the second construct with the mutated T393
- share of total phosphorylation at T393 (in vitro kinase assay, ^32P incorporation): 63% of total phosphorylation occurs at the putative Erk2 site
